# Biological target: CD47 on CD47-overexpressing breast cancer cell line MCF-7 (UniProt Q08722)
# Experiment: flow cytometry on MCF-7 cells, secondary antibody alone (background control)
# Chain of CD47 on CD47-overexpressing breast cancer cell line MCF-7 (Q08722 19-323 limits assumed): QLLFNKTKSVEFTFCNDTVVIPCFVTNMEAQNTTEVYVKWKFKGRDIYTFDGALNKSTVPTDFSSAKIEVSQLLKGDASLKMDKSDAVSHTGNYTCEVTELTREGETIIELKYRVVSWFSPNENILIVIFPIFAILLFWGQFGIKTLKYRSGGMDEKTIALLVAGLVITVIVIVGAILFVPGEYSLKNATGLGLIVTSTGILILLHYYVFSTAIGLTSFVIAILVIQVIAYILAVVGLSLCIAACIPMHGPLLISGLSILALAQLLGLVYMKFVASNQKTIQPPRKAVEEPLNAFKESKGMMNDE
Molecule,Mean,Median
"PE-conjugated goat anti-mouse IgG antibody (Biolegend Inc., cat #405307)",80,73.9

# Biological target: CD47 on CD47-overexpressing breast cancer cell line MCF-7 (UniProt Q08722)
# Experiment: flow cytometry on MCF-7 cells, PE anti-human CD47, 5 µl
Molecule,Mean,Median
"CD47 antibody (Biolegend PE anti-human CD47, cat #323108)",11900,11000

# Biological target: T1, CD47 protein (Acrobiosystems, cat #CD7-HA2E9) (UniProt Q08722 19-139)
# T1 construct: Bought recombinant protein coated on the ELISA plate at 100 ng/well; also called CD47 antigen; CD47 peptide
# T1 sequence (Q08722 19-139 limits assumed): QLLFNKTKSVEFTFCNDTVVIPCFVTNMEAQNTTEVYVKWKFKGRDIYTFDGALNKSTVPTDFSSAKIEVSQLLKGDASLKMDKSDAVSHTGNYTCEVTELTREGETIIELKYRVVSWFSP
# Experiment: ELISA, CD47 protein coated 100 ng/well, 0.8 µg antibody per well
# Procedure: The purified 0.8 μg humanized antibody was treated in each well, and then reacted at room temperature for 2 hours, and then washed 3 times with 1×PBST. Secondary antibody ([…], 1:5,000) was treated and reacted at room temperature for 30 minutes, washed 3 times with 1×PBST, and then treated with TMB for color development and reacted at room temperature for 5 minutes. Finally, the reaction was terminated by treatment with a stop solution of 1 N H₂SO₄, and then the absorbance was measured at 450 nm.
row,Molecule,OD450 measurements [OD450]
1,"Hu3A5(V1) antibody (antibody, V domains shown) VH: EVQLVQSGAEVKKPGASVKVSCKASGYTFTSYWMHWMRQAPGQGLEWIGVIDPSDSYTSYNQKFQGRVTLTVDTSTSTAYMELSSLRSEDTAVYYCARGGKRAMDYWGQGTTVTVSS VL: DVVMTQSPLSLPVTLGQPASISCRSSQSLVHSNGNTYLHWFQQRPGQSPRLLIYKVSNRFSGVPDRFSGSGSGTDFTLKISRVEAEDVGVYFCSQSTHVPFTFGGGTKLEIK",2.58
2,"Hu3A5 (V9) antibody (antibody, V domains shown) VH: EVQLVQSGSELKKPGASVKVSCKASGYTFTSYWMHWMRQAPGQGLEWIGVIDPSDSYTSYNQGFTGRFVLSVDTSVSTAYLQISSLKAEDTAVYYCARGGKRAMDYWGQGTTVTVSS VL: DVVMTQSPLSLPVTLGQPASISCRSSQSLVHSNGNTYLHWFQQRPGQSPRLLIYKVSNRFSGVPDRFSGSGSGTDFTLKISRVEAEDVGVYFCSQSTHVPFTFGGGTKLEIK",2.65
3,"Hu3A5 (V3) antibody (antibody, V domains shown) VH: EVQLVQSGAEVKKPGASVKVSCKASGYTFTSYWMHWMRQAPGQGLEWIGVIDPSDSYTSYNQKFQGRVTLTVDTSTSTAYMELSSLRSEDTAVYYCARGGKRAMDYWGQGTTVTVSS VL: DVVMTQSPDSLAVSLGERATINCKSSQSLVHSNGNTYLHWYQQKPGQPPKLLIYKVSNRFSGVPDRFSGSGSGTDFTLTISSLQAEDVAVYFCSQSTHVPFTFGGGTKLEIK",2.54
4,"Hu3A5 (V5) antibody (antibody, V domains shown) VH: QVQLVQSGAEVKKPGASVKVSCKASGYTFTSYWMHWVRQAPGQGLEWMGVIDPSDSYTSYNQKFQGRVTMTVDTSTSTAYMELSSLRSEDTAVYYCARGGKRAMDYWGQGTTVTVSS VL: DVVMTQSPLSLPVTLGQPASISCRSSQSLVHSNGNTYLHWFQQRPGQSPRLLIYKVSNRFSGVPDRFSGSGSGTDFTLKISRVEAEDVGVYFCSQSTHVPFTFGGGTKLEIK",2.57
5,"Hu3A5 (V7) antibody (antibody, V domains shown) VH: QVQLVQSGAEVKKPGASVKVSCKASGYTFTSYWMHWVRQAPGQGLEWMGVIDPSDSYTSYNQKFQGRVTMTVDTSTSTAYMELSSLRSEDTAVYYCARGGKRAMDYWGQGTTVTVSS VL: DVVMTQSPDSLAVSLGERATINCKSSQSLVHSNGNTYLHWYQQKPGQPPKLLIYKVSNRFSGVPDRFSGSGSGTDFTLTISSLQAEDVAVYFCSQSTHVPFTFGGGTKLEIK",2.67
6,"Hu3A5 (V4) antibody (antibody, V domains shown) VH: EVQLVQSGAEVKKPGASVKVSCKASGYTFTSYWMHWMRQAPGQGLEWIGVIDPSDSYTSYNQKFQGRVTLTVDTSTSTAYMELSSLRSEDTAVYYCARGGKRAMDYWGQGTTVTVSS VL: DVVMTQSPDSLAVSLGERATINCKSSQSLVHSNGNTYLHWYQQKPGQPPKLLIYKVSNRFSGVPDRFSGSGSGTDFTLTISSLQAEDVAVYYCSQSTHVPFTFGGGTKLEIK",2.74
7,"Hu3A5(V14) antibody (antibody, V domains shown) VH: QVQLVQSGSELKKPGASVKVSCKASGYTFTSYWMNWVRQAPGQGLEWMGVIDPSDSYTSYNQGFTGRFVFSVDTSVSTAYLQISSLKAEDTAVYYCARGGKRAMDYWGQGTTVTVSS VL: DVVMTQSPLSLPVTLGQPASISCRSSQSLVHSNGNTYLHWFQQRPGQSPRLLIYKVSNRFSGVPDRFSGSGSGTDFTLKISRVEAEDVGVYYCSQSTHVPFTFGGGTKLEIK",0.147
8,"Hu3A5 (V2) antibody (antibody, V domains shown) VH: EVQLVQSGAEVKKPGASVKVSCKASGYTFTSYWMHWMRQAPGQGLEWIGVIDPSDSYTSYNQKFQGRVTLTVDTSTSTAYMELSSLRSEDTAVYYCARGGKRAMDYWGQGTTVTVSS VL: DVVMTQSPLSLPVTLGQPASISCRSSQSLVHSNGNTYLHWFQQRPGQSPRLLIYKVSNRFSGVPDRFSGSGSGTDFTLKISRVEAEDVGVYYCSQSTHVPFTFGGGTKLEIK",2.69
9,"Hu3A5 (V6) antibody (antibody, V domains shown) VH: QVQLVQSGAEVKKPGASVKVSCKASGYTFTSYWMHWVRQAPGQGLEWMGVIDPSDSYTSYNQKFQGRVTMTVDTSTSTAYMELSSLRSEDTAVYYCARGGKRAMDYWGQGTTVTVSS VL: DVVMTQSPLSLPVTLGQPASISCRSSQSLVHSNGNTYLHWFQQRPGQSPRLLIYKVSNRFSGVPDRFSGSGSGTDFTLKISRVEAEDVGVYYCSQSTHVPFTFGGGTKLEIK",2.62
10,"Hu3A5(V13) antibody (antibody, V domains shown) VH: QVQLVQSGSELKKPGASVKVSCKASGYTFTSYWMNWVRQAPGQGLEWMGVIDPSDSYTSYNQGFTGRFVFSVDTSVSTAYLQISSLKAEDTAVYYCARGGKRAMDYWGQGTTVTVSS VL: DVVMTQSPLSLPVTLGQPASISCRSSQSLVHSNGNTYLHWFQQRPGQSPRLLIYKVSNRFSGVPDRFSGSGSGTDFTLKISRVEAEDVGVYFCSQSTHVPFTFGGGTKLEIK",0.0966
11,"Hu3A5 (V8) antibody (antibody, V domains shown) VH: QVQLVQSGAEVKKPGASVKVSCKASGYTFTSYWMHWVRQAPGQGLEWMGVIDPSDSYTSYNQKFQGRVTMTVDTSTSTAYMELSSLRSEDTAVYYCARGGKRAMDYWGQGTTVTVSS VL: DVVMTQSPDSLAVSLGERATINCKSSQSLVHSNGNTYLHWYQQKPGQPPKLLIYKVSNRFSGVPDRFSGSGSGTDFTLTISSLQAEDVAVYYCSQSTHVPFTFGGGTKLEIK",2.45
12,"Hu3A5(V10) antibody (antibody, V domains shown, also called humanized 3A5(V10) antibody; humanized Hu3A5(V10) antibody) VH: EVQLVQSGSELKKPGASVKVSCKASGYTFTSYWMHWMRQAPGQGLEWIGVIDPSDSYTSYNQGFTGRFVLSVDTSVSTAYLQISSLKAEDTAVYYCARGGKRAMDYWGQGTTVTVSS VL: DVVMTQSPLSLPVTLGQPASISCRSSQSLVHSNGNTYLHWFQQRPGQSPRLLIYKVSNRFSGVPDRFSGSGSGTDFTLKISRVEAEDVGVYYCSQSTHVPFTFGGGTKLEIK",2.81
13,"Hu3A5(V11) antibody (antibody, V domains shown) VH: EVQLVQSGSELKKPGASVKVSCKASGYTFTSYWMHWMRQAPGQGLEWIGVIDPSDSYTSYNQGFTGRFVLSVDTSVSTAYLQISSLKAEDTAVYYCARGGKRAMDYWGQGTTVTVSS VL: DVVMTQSPDSLAVSLGERATINCKSSQSLVHSNGNTYLHWYQQKPGQPPKLLIYKVSNRFSGVPDRFSGSGSGTDFTLTISSLQAEDVAVYFCSQSTHVPFTFGGGTKLEIK",2.81
14,"Hu3A5(V15) antibody (antibody, V domains shown) VH: QVQLVQSGSELKKPGASVKVSCKASGYTFTSYWMNWVRQAPGQGLEWMGVIDPSDSYTSYNQGFTGRFVFSVDTSVSTAYLQISSLKAEDTAVYYCARGGKRAMDYWGQGTTVTVSS VL: DVVMTQSPDSLAVSLGERATINCKSSQSLVHSNGNTYLHWYQQKPGQPPKLLIYKVSNRFSGVPDRFSGSGSGTDFTLTISSLQAEDVAVYFCSQSTHVPFTFGGGTKLEIK",0.111
15,"Hu3A5(V12) antibody (antibody, V domains shown) VH: EVQLVQSGSELKKPGASVKVSCKASGYTFTSYWMHWMRQAPGQGLEWIGVIDPSDSYTSYNQGFTGRFVLSVDTSVSTAYLQISSLKAEDTAVYYCARGGKRAMDYWGQGTTVTVSS VL: DVVMTQSPDSLAVSLGERATINCKSSQSLVHSNGNTYLHWYQQKPGQPPKLLIYKVSNRFSGVPDRFSGSGSGTDFTLTISSLQAEDVAVYYCSQSTHVPFTFGGGTKLEIK",2.85
16,"Hu3A5(V16) antibody (antibody, V domains shown) VH: QVQLVQSGSELKKPGASVKVSCKASGYTFTSYWMNWVRQAPGQGLEWMGVIDPSDSYTSYNQGFTGRFVFSVDTSVSTAYLQISSLKAEDTAVYYCARGGKRAMDYWGQGTTVTVSS VL: DVVMTQSPDSLAVSLGERATINCKSSQSLVHSNGNTYLHWYQQKPGQPPKLLIYKVSNRFSGVPDRFSGSGSGTDFTLTISSLQAEDVAVYYCSQSTHVPFTFGGGTKLEIK",0.106
